{
  "source": "patent US12099068B2",
  "about": "“Biomarkers for graft-versus-host disease” (Incyte Corporation, priority 2018, dated 2024)",
  "molecules": {"B1": {"name": "NADK (protein, UniProt O95544 1-446, looked up)", "NAD kinase": "MEMEQEKMTMNKELSPDAAAYCCSACHGDETWSYNHPIRGRAKSRSLSASPALGSTKEFRRTRSLHGPCPVTTFGPKACVLQNPQTIMHIQDPASQRLTWNKSPKSVLVIKKMRDASLLQPFKELCTHLMEENMIVYVEKKVLEDPAIASDESFGAVKKKFCTFREDYDDISNQIDFIICLGGDGTLLYASSLFQGSVPPVMAFHLGSLGFLTPFSFENFQSQVTQVIEGNAAVVLRSRLKVRVVKELRGKKTAVHNGLGENGSQAAGLDMDVGKQAMQYQVLNEVVIDRGPSSYLSNVDVYLDGHLITTVQGDGVIVSTPTGSTAYAAAAGASMIHPNVPAIMITPICPHSLSFRPIVVPAGVELKIMLSPEARNTAWVSFDGRKRQEIRHGDSISITTSCYPLPSICVRDPVSDWFESLAQCLHWNVRKKQAHFEEEEEEEEEG"}, "B2": {"name": "ZBTB17 (protein, UniProt Q13105 1-803, looked up)", "Zinc finger and BTB …": "MDFPQHSQHVLEQLNQQRQLGLLCDCTFVVDGVHFKAHKAVLAACSEYFKMLFVDQKDVVHLDISNAAGLGQVLEFMYTAKLSLSPENVDDVLAVATFLQMQDIITACHALKSLAEPATSPGGNAEALATEGGDKRAKEEKVATSTLSRLEQAGRSTPIGPSRDLKEERGGQAQSAASGAEQTEKADAPREPPPVELKPDPTSGMAAAEAEAALSESSEQEMEVEPARKGEEEQKEQEEQEEEGAGPAEVKEEGSQLENGEAPEENENEESAGTDSGQELGSEARGLRSGTYGDRTESKAYGSVIHKCEDCGKEFTHTGNFKRHIRIHTGEKPFSCRECSKAFSDPAACKAHEKTHSPLKPYGCEECGKSYRLISLLNLHKKRHSGEARYRCEDCGKLFTTSGNLKRHQLVHSGEKPYQCDYCGRSFSDPTSKMRHLETHDTDKEHKCPHCDKKFNQVGNLKAHLKIHIADGPLKCRECGKQFTTSGNLKRHLRIHSGEKPYVCIHCQRQFADPGALQRHVRIHTGEKPCQCVMCGKAFTQASSLIAHVRQHTGEKPYVCERCGKRFVQSSQLANHIRHHDNIRPHKCSVCSKAFVNVGDLSKHIIIHTGEKPYLCDKCGRGFNRVDNLRSHVKTVHQGKAGIKILEPEEGSEVSVVTVDDMVTLATEALAATAVTQLTVVPVGAAVTADETEVLKAEISKAVKQVQEEDPNTHILYACDSCGDKFLDANSLAQHVRIHTAQALVMFQTDADFYQQYGPGGTWPAGQVLQAGELVFRPRDGAEGQPALAETSPTAPECPPPAE"}, "B3": {"name": "BANK1 (protein, UniProt Q8NDB2 1-785, looked up)", "B-cell scaffold protein with …": "MLPAAPGKGLGSPDPAPCGPAPPGNTKDIIMIYEEDAEEWALYLTEVFLHVVKREAILLYRLENFSFRHLELLNLTSYKCKLLILSNSLLRDLTPKKCQFLEKILHSPKSVVTLLCGVKSSDQLYELLNISQSRWEISTEQEPEDYISVIQSIIFKDSEDYFEVNIPTDLRAKHSGEISERKEIEELSEASRNTIPLAVVLPTEIPCENPGEIFIILRDEVIGDTVEVEFTSSNKRIRTRPALWNKKVWCMKALEFPAGSVHVNVYCDGIVKATTKIKYYPTAKAKECLFRMADSGESLCQNSIEELDGVLTSIFKHEIPYYEFQSLQTEICSQNKYTHFKELPTLLHCAAKFGLKNLAIHLLQCSGATWASKMKNMEGSDPAHIAERHGHKELKKIFEDFSIQEIDINNEQENDYEEDIASFSTYIPSTQNPAFHHESRKTYGQSADGAEANEMEGEGKQNGSGMETKHSPLEVGSESSEDQYDDLYVFIPGADPENNSQEPLMSSRPPLPPPRPVANAFQLERPHFTLPGTMVEGQMERSQNWGHPGVRQETGDEPKGEKEKKEEEKEQEEEEDPYTFAEIDDSEYDMILANLSIKKKTGSRSFIINRPPAPTPRPTSIPPKEETTPYIAQVFQQKTARRQSDDDKFCGLPKKQDRARIESPAFSTLRGCLTDGQEELILLQEKVKNGKMSMDEALEKFKHWQMGKSGLEMIQQEKLRQLRDCIIGKRPEEENVYNKLTIVHHPGGKETAHNENKFYNVHFSNKLPARPQVEKEFGFCCKKDH"}, "B4": {"name": "AMIGO2 (protein, UniProt Q86SJ2 40-522, looked up)", "Amphoterin-induced protein 2": "VCPTACICATDIVSCTNKNLSKVPGNLFRLIKRLDLSYNRIGLLDSEWIPVSFAKLNTLILRHNNITSISTGSFSTTPNLKCLDLSSNKLKTVKNAVFQELKVLEVLLLYNNHISYLDPSAFGGLSQLQKLYLSGNFLTQFPMDLYVGRFKLAELMFLDVSYNRIPSMPMHHINLVPGKQLRGIYLHGNPFVCDCSLYSLLVFWYRRHFSSVMDFKNDYTCRLWSDSRHSRQVLLLQDSFMNCSDSIINGSFRALGFIHEAQVGERLMVHCDSKTGNANTDFIWVGPDNRLLEPDKEMENFYVFHNGSLVIESPRFEDAGVYSCIAMNKQRLLNETVDVTINVSNFTVSRSHAHEAFNTAFTTLAACVASIVLVLLYLYLTPCPCKCKTKRQKNMLHQSNAHSSILSPGPASDASADERKAGAGKRVVFLEPLKDTAAGQNGKVRLFPSEAVIAEGILKSTRGKSDSDSVNSVFSDTPFVAST"}, "B5": {"name": "CLEC1A (protein, UniProt Q8NC01 1-280, looked up)", "C-type lectin domain family 1 …": "MQAKYSSTRDMLDDDGDTTMSLHSQGSATTRHPEPRRTEHRAPSSTWRPVALTLLTLCLVLLIGLAALGLLFFQYYQLSNTGQDTISQMEERLGNTSQELQSLQVQNIKLAGSLQHVAEKLCRELYNKAGAHRCSPCTEQWKWHGDNCYQFYKDSKSWEDCKYFCLSENSTMLKINKQEDLEFAASQSYSEFFYSYWTGLLRPDSGKAWLWMDGTPFTSELFHIIIDVTSPRSRDCVAILNGMIFSKDCKELKRCVCERRAGMVKPESLHVPPETLGEGD"}, "B6": {"name": "KIM1 (protein, UniProt Q96D42 21-364, looked up)", "Hepatitis A virus cellular …": "SVKVGGEAGPSVTLPCHYSGAVTSMCWNRGSCSLFTCQNGIVWTNGTHVTYRKDTRYKLLGDLSRRDVSLTIENTAVSDSGVYCCRVEHRGWFNDMKITVSLEIVPPKVTTTPIVTTVPTVTTVRTSTTVPTTTTVPMTTVPTTTVPTTMSIPTTTTVLTTMTVSTTTSVPTTTSIPTTTSVPVTTTVSTFVPPMPLPRQNHEPVATSPSSPQPAETHPTTLQGAIRREPTSSPLYSYTTDGNDTVTESSDGLWNNNQTQLFLEHSLLTANTTKGIYAGVCISVLVLLALLGVIIAKKYFFKKEVQQLSVSFSSLQIKALQNAVEKEVQAEDNIYIENSLYATD"}, "B7": {"name": "TNFRSF14 (protein, UniProt Q92956 39-283, looked up)", "Tumor necrosis factor …": "LPSCKEDEYPVGSECCPKCSPGYRVKEACGELTGTVCEPCPPGTYIAHLNGLSKCLQCQMCDPAMGLRASRNCSRTENAVCGCSPGHFCIVQDGDHCAACRAYATSSPGQRVQKGGTESQDTLCQNCPPGTFSPNGTLEECQHQTKCSWLVTKAGAGTSSSHWVWWFLSGSLVIVIVCSTVGLIICVKRRKPRGDVVKVIVSVQRKRQEAEGEATVIEALQAPPDVTTVAVEETIPSFTGRSPNH"}, "B8": {"name": "TNFRSF6B (protein, UniProt O95407 30-300, looked up)", "Tumor necrosis factor …": "VAETPTYPWRDAETGERLVCAQCPPGTFVQRPCRRDSPTTCGPCPPRHYTQFWNYLERCRYCNVLCGEREEEARACHATHNRACRCRTGFFAHAGFCLEHASCPPGAGVIAPGTPSQNTQCQPCPPGTFSASSSSSEQCQPHRNCTALGLALNVPGSSSHDTLCTSCTGFPLSTRVPGAEECERAVIDFVAFQDISIKRLQRLLQALEAPEGWGPTPRAGRAALQLKLRRRLTELLGAQDGALLVRLLQALRVARMPGLERSVRERFLPVH"}, "B9": {"name": "Flt3L (protein, UniProt P49771 27-235, looked up)", "Fms-related tyrosine kinase 3 …": "TQDCSFQHSPISSDFAVKIRELSDYLLQDYPVTVASNLQDEELCGGLWRLVLAQRWMERLKTVAGSKMQGLLERVNTEIHFVTKCAFQPPPSCLRFVQTNISRLLQETSEQLVALKPWITRQNFSRCLELQCQPDSSTLPPPWSPRPLEATAPTAPQPPLLLLLLLPVGLLLLAAAWCLHWQRTRRRTPRPGEQVPPVPSPQDLLLVEH"}, "B10": {"name": "PRKCQ (protein, UniProt Q04759 1-706, looked up)", "Protein kinase C theta type": "MSPFLRIGLSNFDCGSCQSCQGEAVNPYCAVLVKEYVESENGQMYIQKKPTMYPPWDSTFDAHINKGRVMQIIVKGKNVDLISETTVELYSLAERCRKNNGKTEIWLELKPQGRMLMNARYFLEMSDTKDMNEFETEGFFALHQRRGAIKQAKVHHVKCHEFTATFFPQPTFCSVCHEFVWGLNKQGYQCRQCNAAIHKKCIDKVIAKCTGSAINSRETMFHKERFKIDMPHRFKVYNYKSPTFCEHCGTLLWGLARQGLKCDACGMNVHHRCQTKVANLCGINQKLMAEALAMIESTQQARCLRDTEQIFREGPVEIGLPCSIKNEARPPCLPTPGKREPQGISWESPLDEVDKMCHLPEPELNKERPSLQIKLKIEDFILHKMLGKGSFGKVFLAEFKKTNQFFAIKALKKDVVLMDDDVECTMVEKRVLSLAWEHPFLTHMFCTFQTKENLFFVMEYLNGGDLMYHIQSCHKFDLSRATFYAAEIILGLQFLHSKGIVYRDLKLDNILLDKDGHIKIADFGMCKENMLGDAKTNTFCGTPDYIAPEILLGQKYNHSVDWWSFGVLLYEMLIGQSPFHGQDEEELFHSIRMDNPFYPRWLEKEAKDLLVKLFVREPEKRLGVRGDIRQHPLFREINWEELERKEIDPPFRPKVKSPFDCSNFDKEFLNEKPRLSFADRALINSMDQNMFRNFSFMNPGMERLIS"}, "B11": {"name": "ICAM1 (protein, UniProt P05362 28-532, looked up)", "Intercellular adhesion …": "QTSVSPSKVILPRGGSVLVTCSTSCDQPKLLGIETPLPKKELLLPGNNRKVYELSNVQEDSQPMCYSNCPDGQSTAKTFLTVYWTPERVELAPLPSWQPVGKNLTLRCQVEGGAPRANLTVVLLRGEKELKREPAVGEPAEVTTTVLVRRDHHGANFSCRTELDLRPQGLELFENTSAPYQLQTFVLPATPPQLVSPRVLEVDTQGTVVCSLDGLFPVSEAQVHLALGDQRLNPTVTYGNDSFSAKASVSVTAEDEGTQRLTCAVILGNQSQETLQTVTIYSFPAPNVILTKPEVSEGTEVTVKCEAHPRAKVTLNGVPAQPLGPRAQLLLKATPEDNGRSFSCSATLEVAGQLIHKNQTRELRVLYGPRLDERDCPGNWTWPENSQQTPMCQAWGNPLPELKCLKDGTFPLPIGESVTVTRDLEGTYLCRARSTQGEVTRKVTVNVLSPRYEIVIITVVAAAVIMGTAGLSTYLYNRQRKIKKYRLQQAQKGTPMKPNTQATPP"}},
  "note": "Several values for one entry are separate records, joined by “and”; a condition that tells them apart may be missing. Equal values may be shown once.",
  "data": [
    {"system": "plasma proteins", "assay": "Plasma proteins modulated between baseline and day 28 in responders (CR, VGPR, PR; n = 19), Example 6 (Table 13)", "format": "in vivo, human", "settings": "plasma protein (OLINK NPX); responders (CR, VGPR, PR; n = 19); itacitinib 200 mg or 300 mg QD with corticosteroids; day 28 vs baseline", "method_in_brief": "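Plasma at baseline/screening and day 28 profiled for >1000 proteins by OLINK proximity extension assay, reported as NPX (log2). Steroid-naive and steroid-refractory patients pooled. Paired and unpaired t tests, ANOVA and Pearson correlation applied; significance at P<0.05.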", "values": [
      {"molecule": "B1", "Fold Change, Decreased Expression from Baseline to Day 28": "−1.3493"},
      {"molecule": "B2", "Fold Change, Decreased Expression from Baseline to Day 28": "−1.2333"},
      {"molecule": "B3", "Fold Change, Decreased Expression from Baseline to Day 28": "−2.0084"},
      {"molecule": "B4", "Fold Change, Decreased Expression from Baseline to Day 28": "−1.1962"},
      {"molecule": "B5", "Fold Change, Decreased Expression from Baseline to Day 28": "−1.2841"},
      {"molecule": "B6", "Fold Change, Increased Expression from Baseline to Day 28": "1.7741 and 1.757"},
      {"molecule": "B7", "Fold Change, Decreased Expression from Baseline to Day 28": "−1.2658"},
      {"molecule": "B8", "Fold Change, Decreased Expression from Baseline to Day 28": "−1.3504"},
      {"molecule": "B9", "Fold Change, Increased Expression from Baseline to Day 28": 2.3423},
      {"molecule": "B10", "Fold Change, Decreased Expression from Baseline to Day 28": "−1.3251"},
      {"molecule": "B11", "Fold Change, Decreased Expression from Baseline to Day 28": "−1.354"}
    ]}
  ]
}
